US20190062420A1 (Janssen / Centocor, published 2019)

T1: human FcγRIIA (NM_021642) expressed on cells (human, UniProt P12318 36-317)
T1 sequence: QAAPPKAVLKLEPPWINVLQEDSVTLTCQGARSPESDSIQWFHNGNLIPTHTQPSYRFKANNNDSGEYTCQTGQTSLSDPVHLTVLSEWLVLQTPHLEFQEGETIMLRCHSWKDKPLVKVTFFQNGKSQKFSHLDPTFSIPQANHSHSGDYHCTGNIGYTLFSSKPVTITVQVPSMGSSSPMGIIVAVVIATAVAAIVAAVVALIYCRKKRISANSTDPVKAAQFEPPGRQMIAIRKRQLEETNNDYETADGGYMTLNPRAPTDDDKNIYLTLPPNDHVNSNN

T2: human FcγRIIB (NM_004001) expressed on cells (human, UniProt P31994 43-310)
T2 construct: Transiently expressed on Expi293F cells; also called Expi293F FcγRIIB; HEK293F cells expressing FcγRIIB
T2 sequence: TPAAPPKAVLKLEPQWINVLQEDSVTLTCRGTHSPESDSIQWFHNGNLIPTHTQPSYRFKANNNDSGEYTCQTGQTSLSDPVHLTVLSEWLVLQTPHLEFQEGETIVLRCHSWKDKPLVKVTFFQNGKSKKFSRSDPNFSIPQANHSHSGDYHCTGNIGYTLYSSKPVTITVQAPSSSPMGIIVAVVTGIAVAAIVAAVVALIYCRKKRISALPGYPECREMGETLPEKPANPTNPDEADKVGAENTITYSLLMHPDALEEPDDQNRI

T3: FcγRIIB protein (human, UniProt P31994 43-217, biotinylated (SureLINK Biotin Kit) in the ELISA of Example 1)
T3 sequence: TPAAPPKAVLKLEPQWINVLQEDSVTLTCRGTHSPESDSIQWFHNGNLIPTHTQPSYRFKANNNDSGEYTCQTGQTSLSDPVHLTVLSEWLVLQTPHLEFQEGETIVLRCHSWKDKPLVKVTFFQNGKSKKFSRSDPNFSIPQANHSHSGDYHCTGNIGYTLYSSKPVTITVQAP

T4: FcγRIIA protein (human, UniProt P12318 36-217, biotinylated (SureLINK Biotin Kit) in the ELISA of Example 1)
T4 sequence: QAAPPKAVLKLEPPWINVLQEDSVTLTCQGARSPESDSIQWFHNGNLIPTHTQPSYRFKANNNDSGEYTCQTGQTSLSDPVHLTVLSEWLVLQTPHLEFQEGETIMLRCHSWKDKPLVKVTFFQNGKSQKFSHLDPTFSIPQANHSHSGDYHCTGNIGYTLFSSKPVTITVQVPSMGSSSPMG

T5: human OX40 expressed on HEK-Blue: OX40 cells (human, UniProt P43489 29-277)
T5 construct: also called CD134
T5 sequence: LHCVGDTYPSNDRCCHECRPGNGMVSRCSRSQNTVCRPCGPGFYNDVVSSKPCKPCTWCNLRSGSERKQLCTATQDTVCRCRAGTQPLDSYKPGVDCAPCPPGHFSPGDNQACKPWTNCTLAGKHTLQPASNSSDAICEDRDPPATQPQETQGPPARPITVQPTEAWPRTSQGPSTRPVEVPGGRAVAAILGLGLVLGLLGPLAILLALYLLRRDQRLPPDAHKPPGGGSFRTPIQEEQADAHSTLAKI

B1: OX40SF2IgG2sigma_R2BS29_HC-C (bispecific antibody)
heavy: QVQLVQSGAEVKKPGSSVKVSCKASGYTFKDYTMHWVRQAPGQGLEWIGGIYPNNGGSTYNQNFKDRVTLTADKSTSTAYMELSSLRSEDTAVYYCARMGYHGPHLDFDVWGQGTTVTVSSASTKGPSVFPLAPCSRSTSESTAALGCLVKDYFPEPVTVSWNSGALTSGVHTFPAVLQSSGLYSLSSVVTVPSSNFGTQTYTCNVDHKPSNTKVDKTVERKCCVECPPCPAPPAAASSVFLFPPKPKDTLMISRTPEVTCVVVDVSAEDPEVQFNWYVDGVEVHNAKTKPREEQFNSTFRVVSVLTVLHQDWLNGKEYKCKVSNKGLPSSIEKTISKTKGQPREPQVYTLPPSREEMTKNQVSLTCLVKGFYPSDIAVEWESNGQPENNYKTTPPMLDSDGSFFLYSKLTVDKSRWQQGNVFSCSVMHEALHNHYTQKSLSLSPGKGGGGGSGGGGSGGGGSGGGGSLPAPKNLVVSRVTEDSARLSWTAPDAAFDSFPIYYWEYRVGGEAIVLTVPGSERSYDLTGLKPGTEYFVYINGVKGGEESRPLSAIFTT
light: DIQMTQSPSSLSASVGDRVTITCKASQDVGAAVAWYQQKPGKAPKLLIYWASTRHTGVPSRFSGSGSGTDFTLTISSLQPEDFATYYCQQYINYPLTFGGGTKVEIKRTVAAPSVFIFPPSDEQLKSGTASVVCLLNNFYPREAKVQWKVDNALQSGNSQESVTEQDSKDSTYSLSSTLTLSKADYEKHKVYACEVTHQGLSSPVTKSFNRGEC
notes: mAbtyrin: anti-OX40 antibody OX40SF2, effector silent IgG2sigma, with linker and R2BS29 FN3 domain at the C-terminus of the heavy chain; also called mAbtyrin
B2: OX40SF2IgG1 (antibody)
heavy: not shown
light: DIQMTQSPSSLSASVGDRVTITCKASQDVGAAVAWYQQKPGKAPKLLIYWASTRHTGVPSRFSGSGSGTDFTLTISSLQPEDFATYYCQQYINYPLTFGGGTKVEIKRTVAAPSVFIFPPSDEQLKSGTASVVCLLNNFYPREAKVQWKVDNALQSGNSQESVTEQDSKDSTYSLSSTLTLSKADYEKHKVYACEVTHQGLSSPVTKSFNRGEC
notes: Anti-OX40 antibody, wild-type IgG1; control without FN3 domain
B3: OX40SF2IgG2sigma (antibody)
heavy: QVQLVQSGAEVKKPGSSVKVSCKASGYTFKDYTMHWVRQAPGQGLEWIGGIYPNNGGSTYNQNFKDRVTLTADKSTSTAYMELSSLRSEDTAVYYCARMGYHGPHLDFDVWGQGTTVTVSSASTKGPSVFPLAPCSRSTSESTAALGCLVKDYFPEPVTVSWNSGALTSGVHTFPAVLQSSGLYSLSSVVTVPSSNFGTQTYTCNVDHKPSNTKVDKTVERKCCVECPPCPAPPAAASSVFLFPPKPKDTLMISRTPEVTCVVVDVSAEDPEVQFNWYVDGVEVHNAKTKPREEQFNSTFRVVSVLTVLHQDWLNGKEYKCKVSNKGLPSSIEKTISKTKGQPREPQVYTLPPSREEMTKNQVSLTCLVKGFYPSDIAVEWESNGQPENNYKTTPPMLDSDGSFFLYSKLTVDKSRWQQGNVFSCSVMHEALHNHYTQKSLSLSPGK
light: DIQMTQSPSSLSASVGDRVTITCKASQDVGAAVAWYQQKPGKAPKLLIYWASTRHTGVPSRFSGSGSGTDFTLTISSLQPEDFATYYCQQYINYPLTFGGGTKVEIKRTVAAPSVFIFPPSDEQLKSGTASVVCLLNNFYPREAKVQWKVDNALQSGNSQESVTEQDSKDSTYSLSSTLTLSKADYEKHKVYACEVTHQGLSSPVTKSFNRGEC
notes: Anti-OX40 antibody, IgG2 sigma isotype (effector silent Fc: V234A, G237A, P238S, H268A, V309L, A330S, P331S against wild type IgG2); control without FN3 domain; also called parental antibody; parental OX40 antibody

Tests used:
[1] = biological target: T1, human FcγRIIA (NM_021642) expressed on …; experiment: cell-based or functional assay
[2] = biological target: T6, human FcγRIIIA (NM_000569) expressed on cells (human, UniProt P08637 17-254); experiment: cell-based or functional assay
T6 sequence (P08637 17-254 limits assumed): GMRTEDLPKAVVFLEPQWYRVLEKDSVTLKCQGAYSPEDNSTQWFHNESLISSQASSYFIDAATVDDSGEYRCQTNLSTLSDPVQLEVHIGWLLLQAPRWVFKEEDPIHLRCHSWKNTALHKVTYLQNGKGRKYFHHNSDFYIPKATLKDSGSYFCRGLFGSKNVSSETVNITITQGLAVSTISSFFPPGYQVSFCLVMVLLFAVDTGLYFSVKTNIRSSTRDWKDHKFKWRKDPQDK

[3] = biological target: T2, human FcγRIIB (NM_004001) expressed on …; experiment: flow cytometry; Raji cells (express predominantly FcγRIIB)
Experimental: (§1) 2×10⁵ cells per well were seeded in 96-well plate and blocked in BSA Stain Buffer (BD Biosciences, San Jose, USA) for 30 min at 4° C. Cells were incubated with test mAbtyrin on ice for 1.5 h at 4° C. After being washed twice with BSA stain buffer, the cells were incubated with R-PE labeled anti-human or anti-mouse IgG secondary antibody (Jackson Immunoresearch Laboratories) for 45 min at 4° C. The cells were washed twice in stain buffer and then resuspended in 150 μL of Stain Buffer containing 1:200 diluted DRAQ7 live/dead stain (Cell Signaling Technology, Danvers, USA). PE and DRAQ7 signals of the stained cells were detected by Miltenyi MACSQuant flow cytometer (Miltenyi Biotec, Auburn, USA) using B2 and B4 channel respectively. Live cells were gated on DRAQ7 exclusion and the geometric mean fluorescence signals were determined for at least 10,000 live events collected. FlowJo software (Tree Star) was used for analysis. Data was plotted as the logarithm of antibody concentration versus mean fluorescence signals. Nonlinear regression analysis was performed by GraphPad Prism 6 (GraphPad Software, Inc.) and EC₅₀ values were calculated.
Raji cell is a cell line derived from B cells that express predominantly FcγRIIB. The binding of mAbtyrins on Raji cells were investigated by flow cytometry assay described for testing mAbtyrin binding to FcγR. Binding of the mAbtyrins were detected by flow cytometry using a PE-labeled Goat F(ab′) against Human IgG(γ).

[4] = biological target: T6, human FcγRIIIA (NM_000569) expressed on …; experiment: flow cytometry; Expi293F cells transfected with FcγRIIIA
Experimental: Plasmids expressing cDNAs encoding human FcγRI (NM_000566) (SEQ ID NO: 44), FcγRIIA (NM_021642) (SEQ ID NO: 2), FcγRIIB (NM_004001) (SEQ ID NO: 3), and FcγRIIIA (NM_000569) (SEQ ID NO: 45) (Origene) were transiently transfected into Expi293F cells by ExpiFectamine293 transfection kit (Life Technologies). Flow cytometry assays were performed 48 h after transfection.
as §1

FcγRIIB protein = biological target: T3, FcγRIIB protein; experiment: cell-based or functional assay
FcγRIIA protein = biological target: T4, FcγRIIA protein; experiment: cell-based or functional assay
[5] = biological target: T2, human FcγRIIB (NM_004001) expressed on …; experiment: cell-based or functional assay
[6] = biological target: T5, human OX40 expressed on HEK-Blue: OX40 …; experiment: flow cytometry; HEK-Blue: OX40 cells
In short: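 HEK-Blue Null 1 cells stably transfected with human OX40 were blocked, then incubated with mAbtyrin for 1.5 h at 4 °C. Binding was detected with a PE anti-human IgG F(ab′)₂ secondary, gating on DRAQ7-excluding live cells and taking geometric mean fluorescence. EC50 came from nonlinear regression versus log antibody concentration.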

| Binder | ADCP EC50 [1] [ng/mL] | ADCC (fold activation) at 1 µg/ml [2] [fold] | EC50 [3] [µg/mL] | EC50 [4] [µg/mL] | IFNγ production by activated CD4 T cells, plate-coated FcγRIIb (FcγRIIB protein) [pg/mL] | TNFα production by activated CD4 T cells, plate-coated FcγRIIb (FcγRIIB protein) [pg/mL] | IFNγ production by activated CD4 T cells, plate-coated FcγRIIA (FcγRIIA protein) [pg/mL] | TNFα production by activated CD4 T cells, plate-coated FcγRIIA (FcγRIIA protein) [pg/mL] | % activity at 1 µg/ml with Raji cells (HEK-Blue: OX40 NF-κB reporter) [5] [%] | Binding to HEK-Blue: OX40 cells (mean signal at 1 µg/ml) [6] [mean fluorescence signal] | EC50 [6] [µg/mL] |
| --- | --- | --- | --- | --- | --- | --- | --- | --- | --- | --- | --- |
| B1 | 37.5 | 1 | 1.44 | > 10 | 1330 | 250 | 1550 | 226 | 93 | 9180 | 0.548 |
| B2 | 39.3 | 9 |  | 0.339 | 70 | 30 | 92 | 28 | 9 |  | 0.229 |
| B3 | > 1000 | 1 | > 10 |  | 70 | 30 | 97 | 28 | 2 | 13900 | 0.166 |
